The record followed here is US20220119489A1, “COMPOSITIONS AND METHODS FOR TREATING MUSCULAR DYSTROPHY AND RELATED DISORDERS” (CHILDREN'S MEDICAL CENTER CORPORATION, priority 2019, published 2022).

This experiment addresses T1, CD82 polypeptide (human) (human).
T1 sequence (P27701 whole entry, looked up): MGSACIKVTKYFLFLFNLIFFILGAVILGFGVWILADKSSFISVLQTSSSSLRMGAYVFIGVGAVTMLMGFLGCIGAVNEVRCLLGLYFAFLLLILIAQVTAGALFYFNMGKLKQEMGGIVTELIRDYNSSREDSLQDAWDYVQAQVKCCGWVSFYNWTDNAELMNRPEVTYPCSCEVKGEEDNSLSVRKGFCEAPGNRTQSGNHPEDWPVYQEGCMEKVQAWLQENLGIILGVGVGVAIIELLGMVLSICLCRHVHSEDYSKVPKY
In words: IP with anti CD82 antibodies, human myotubes, mass spectrometry.

B1: EHD4_HUMAN (protein)
chain: MFSWMGRQAGGRERAGGADAVQTVTGGLRSLYLRKVLPLEEAYRFHEFHSPALEDADFENKPMILLVGQYSTGKTTFIRYLLEQDFPGMRIGPEPTTDSFIAVMYGETEGSTPGNALVVDPKKPFRKLSRFGNAFLNRFMCSQLPNQVLKSISVIDSPGILSGEKQRISRGYDFCQVLQWFAERVDRIILLFDAHKLDISDEFSEAIKAFRGQDDKIRVVLNKADQVDTQQLMRVYGALMWSLGKVINTPEVLRVYIGSFWAQPLQNTDNRRLFEAEAQDLFRDIQSLPQKAAVRKLNDLIKRARLAKVHAYIISYLKKEMPSVFGKENKKRELISRLPEIYIQLQREYQISAGDFPEVKAMQEQLENYDFTKFHSLKPKLIEAVDNMLSNKISPLMNLISQEETSTPTQLVQGGAFDGTTEGPFNQGYGEGAKEGADEEEWVVAKDKPVYDELFYTLSPINGKISGVNAKKEMVTSKLPNSVLGKIWKLADCDCDGMLDEEEFALAKHLIKIKLDGYELPSSLPPHLVPPSHRKSLPKAD
Take B1: the Total came to 3 and the Unique amounted to 3.

B2: Annexin A1 (human) (protein)
chain: AMVSEFLKQAWFIENEEQEYVQTVKSSKGGPGSAVSPYPTFNPSSDVAALHKAIMVKGVDEATIIDILTKRNNAQRQQIKAAYLQETGKPLDETLKKALTGHLEEVVLALLKTPAQFDADELRAAMKGLGTDEDTLIEILASRTNKEIRDINRVYREELKRDLAKDITSDTSGDFRNALLSLAKGDRSEDFGVNEDLADSDARALYEAGERRKGTDVNVFNTILTTRSYPQLRRVFQKYTKYSKHDMNKVLDLELKGDIEKCLTAIVKCATSKPAFFAEKLHQAMKGVGTRHKALIRIMVSRSEIDMNDIKAFYQKMYGISLCQAILDETKGDYEKILVALCGGN
B2 came in with a Total of 3 and a Unique of 3.

B3: PRDX2_HUMAN (enzyme)
chain: ASGNARIGKPAPDFKATAVVDGAFKEVKLSDYKGKYVVLFFYPLDFTFVCPTEIIAFSNRAEDFRKLGCEVLGVSVDSQFTHLAWINTPRKEGGLGPLNIPLLADVTRRLSEDYGVLKTDEGIAYRGLFIIDGKGVLRQITVNDLPVGRSVDEALRLVQAFQYTDEHGEVCPAGWKPGSDTIKPNVDDSKEYFSKHN
Take B3: the Total turned out to be 3 and the Unique came to 3.

B4: TGF beta receptor 1 (receptor)
chain: LQCFCHLCTKDNFTCVTDGLCFVSVTETTDKVIHNSMCIAEIDLIPRDRPFVCAPSSKTGSVTTTYCCNQDHCNKIELPTTVKSSPGLGPVELAAVIAGPVCFVCISLMLMVYICHNRTVIHHRVPNEEDPSLDRPFISEGTTLKDLIYDMTTSGSGSGLPLLVQRTIARTIVLQESIGKGRFGEVWRGKWRGEEVAVKIFSSREERSWFREAEIYQTVMLRHENILGFIAADNKDNGTWTQLWLVSDYHEHGSLFDYLNRYTVTVEGMIKLALSTASGLAHLHMEIVGTQGKPAIAHRDLKSKNILVKKNGTCCIADLGLAVRHDSATDTIDIAPNHRVGTKRYMAPEVLDDSINMKHFESFKRADIYAMGLVFWEIARRCSIGGIHEDYQLPYYDLVPSDPSVEEMRKVVCEQKLRPNIPNRWQSCEALRVMAKIMRECWYANGAARLTALRIKKTLSQLSQQEGIKM
B4 registered a Total of 3 and a Unique of 3.

B5: Eh domain containing 1 (protein)
chain: MFSWVSKDARRKKEPELFQTVAEGLRQLYAQKLLPLEEHYRFHEFHSPALEDADFDNKPMVLLVGQYSTGKTTFIRHLIEQDFPGMRIGPEPTTDSFIAVMHGPTEGVVPGNALVVDPRRPFRKLNAFGNAFLNRFMCAQLPNPVLDSISIIDTPGILSGEKQRISRGYDFAAVLEWFAERVDRIILLFDAHKLDISDEFSEVIKALKNHEDKIRVVLNKADQIETQQLMRVYGALMWSLGKIINTPEVVRVYIGSFWSHPLLIPDNRKLFEAEEQDLFKDIQSLPRNAALRKLNDLIKRARLAKVHAYIISSLKKEMPNVFGKESKKKELVNNLGEIYQKIEREHQISPGDFPSLRKMQELLQTQDFSKFQALKPKLLDTVDDMLANDIARLMVMVRQEESLMPSQVVKGGAFDGTMNGPFGHGYGEGAGEGIDDVEWVVGKDKPTYDEIFYTLSPVNGKITGANAKKEMVKSKLPNTVLGKIWKLADVDKDGLLDDEEFALANHLIKVKLEGHELPADLPPHLVPPSKRRHE
With B5, the Total came out at 3 and the Unique amounted to 3.

B6: EHD2_HUMAN (protein)
chain: MFSWLKRGGARGQQPEAIRTVTSALKELYRTKLLPLEEHYRFGAFHSPALEDADFDGKPMVLVAGQYSTGKTSFIQYLLEQEVPGSRVGPEPTTDCFVAVMHGDTEGTVPGNALVVDPDKPFRKLNPFGNTFLNRFMCAQLPNQVLESISIIDTPGILSGAKQRVSRGYDFPAVLRWFAERVDLIILLFDAHKLEISDEFSEAIGALRGHEDKIRVVLNKADMVETQQLMRVYGALMWALGKVVGTPEVLRVYIGSFWSQPLLVPDNRRLFELEEQDLFRDIQGLPRHAALRKLNDLVKRARLVRVHAYIISYLKKEMPSVFGKENKKKQLILKLPVIFAKIQLEHHISPGDFPDCQKMQELLMAHDFTKFHSLKPKLLEALDEMLTHDIAKLMPLLRQEELESTEVGVQGGAFEGTHMGPFVERGPDEAMEDGEEGSDDEAEWVVTKDKSKYDEIFYNLAPADGKLSGSKAKTWMVGTKLPNSVLGRIWKLSDVDRDGMLDDEEFALASHLIEAKLEGHGLPANLPRRLVPPSKRRHKGSAE
With B6, the Total was 3 and the Unique came to 3.
